2 molecules from paper PMC13615978 can be followed below.

Test [1] has as its target Sla2 IDR-CC-mScarlet (IDR, coiled-coil and REND regions) (S. cerevisiae) (UniProt P33338).
The target is the same in test [2]. This is another data set of the same source.

Chain of UniProt P33338 (P33338 261-746): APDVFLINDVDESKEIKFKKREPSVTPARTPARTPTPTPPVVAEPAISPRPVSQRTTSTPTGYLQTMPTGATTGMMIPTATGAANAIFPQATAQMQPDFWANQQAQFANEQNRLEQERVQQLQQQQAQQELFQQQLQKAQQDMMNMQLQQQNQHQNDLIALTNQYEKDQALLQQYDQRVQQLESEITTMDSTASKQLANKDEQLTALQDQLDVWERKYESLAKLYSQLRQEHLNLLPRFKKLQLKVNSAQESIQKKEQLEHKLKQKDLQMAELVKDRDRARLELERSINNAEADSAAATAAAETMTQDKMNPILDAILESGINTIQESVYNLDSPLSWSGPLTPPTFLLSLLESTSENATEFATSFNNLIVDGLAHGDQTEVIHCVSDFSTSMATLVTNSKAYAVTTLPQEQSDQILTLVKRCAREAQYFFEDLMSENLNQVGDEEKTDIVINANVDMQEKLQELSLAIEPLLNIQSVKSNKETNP

On to “"Clathrin" construct: full-length CLC and CHC distal leg (residues 1172-1572) heterodimer conjugated to mNeonGreen (from UniProt P17891 1-233; P22137 1172-1572) (complex)”, for which, in test [1], the ID/IS of Clathrin (green channel) with Sla2 IDR-CC-mScarlet droplets, 2.5% (w/v) PEG 8000 worked out at 3.6 and the ID/IS of Sla2 IDR-CC-mScarlet (magenta channel) in the presence of Clathrin, 2.5% (w/v) PEG 8000 is 6.9.

B1: Ede1 IDR-CC (residues 366-900) tagged with mEGFP (domain or fragment)
chain: GLYPPNPLPQQQSAPQIAIPSRASKPSLQDMPHQVSAPAVNTQPTVPQVLPQNSNNGSLNDLLALNPSFSSPSPTKAQTVVQNNTNNSFSYDNNNGQATLQQQQPQQPPPLTHSSSGLKKFTPTSNFGQSIIKEEPEEQEQLRESSDTFSAQPPPVPKHASSPVKRTASTTLPQVPNFSVFSMPAGAATSAATGAAVGAAVGAAALGASAFSRSSNNAFKNQDLFADGEASAQLSNATTEMANLSNQVNSLSKQASITNDKKSRATQELKRVTEMKNSIQIKLNNLRSTHDQNVKQTEQLEAQVLQVNKENETLAQQLAVSEANYHAAESKLNELTTDLQESQTKNAELKEQITNLNSMTASLQSQLNEKQQQVKQERSMVDVNSKQLELNQVTVANLQKEIDGLGEKISVYLTKQKELNDYQKTVEEQHAQLQAKYQDLSNKDTDLTDREKQLEERNRQIEEQENLYHQHVSKLQEMFDDLSQRKASFEKADQELKERNIEYANNVRELSERQMNLAMGQLPEDAKDIIAKSAS
In the case of B1, in test [2], the ID/IS of 20 µM Sla2 IDR-CC when mixed with 45 µM Ede1 IDR-CC (4.7 for Sla2 IDR-CC alone), 2.5% (w/v) PEG 8000 came out at 7.8 and the droplet-to-solution intensity ratio (ID/IS) of 5 µM Ede1 IDR-CC in condensates of 20 µM Sla2 IDR-CC, 2.5% (w/v) PEG 8000 stood at 4.
